Non-standard residues stand in square brackets, D forms with d. No end group written: not given here. Dmt = Cc1cc(O)cc(C)c1C[C@H](N)C(=O)O
Assays:
[1] = target: human mu opioid receptor (human) (UniProt P35372); test: radioligand binding; displacement of [3H]DAMGO from commercial membranes of CHO cells transfected with the human recombinant mu opioid receptor; Ki, mean ± SEM, n ≥ 3
[2] = target: human mu opioid receptor (human) (UniProt P35372)

Chain of human mu opioid receptor (human) (P35372 whole entry): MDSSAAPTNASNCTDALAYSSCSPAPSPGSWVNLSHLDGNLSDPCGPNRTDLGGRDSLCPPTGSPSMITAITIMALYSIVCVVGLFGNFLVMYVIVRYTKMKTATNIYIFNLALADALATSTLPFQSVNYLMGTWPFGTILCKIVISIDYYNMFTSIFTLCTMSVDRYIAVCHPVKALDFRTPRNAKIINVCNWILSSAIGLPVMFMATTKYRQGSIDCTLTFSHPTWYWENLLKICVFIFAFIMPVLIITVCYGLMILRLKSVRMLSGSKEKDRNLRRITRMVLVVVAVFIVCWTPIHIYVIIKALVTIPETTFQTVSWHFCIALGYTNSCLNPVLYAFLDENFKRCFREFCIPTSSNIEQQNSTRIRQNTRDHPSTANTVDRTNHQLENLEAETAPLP

B1: EM-2 analog 1 (Dmt-Pro-Phe-Phe-NH2) (peptide)
peptide: [Dmt]PFF-NH2
Ki [1]: 0.54 nM
calcium mobilization, CHO cells with human mu receptor and Gαqi5: α (Emax ratio to the standard agonist) [2]: 0.85

B2: endomorphin-2 (Tyr-Pro-Phe-Phe-NH2) (peptide)
peptide: YPFF-NH2
Ki [1]: 1.97 nM
calcium mobilization, CHO cells with human mu receptor and Gαqi5: α (Emax ratio to the standard agonist) [2]: 1

Source: publication PMC9998502, “Functional selectivity of EM-2 analogs at the mu-opioid receptor” (Frontiers in Pharmacology, 2023)
